Laboratory results published in the supplement of paper PMC11811203.

B1: THAP1; numbered along this chain (parent)
chain: MVQSCSAYGCKNRYDKDKPVSFHKFPLTRPSLCKEWEAAVRRKNFKPTKYSSICSEHFTPDCFKRECNNKLLKENAVPTIFLCTEPHDKKEDLLEPQEQLPPPPLPPPVSQVDAAIGLLMPPLQTPVNLSVFCDHNYTVEDTMHQRKRIHQLEQQVEKLRKKLKTAQQRCRRQERQLEKLKEVVHFQKEKDDVSERGYVILPNDYFEIVEVPA

Variants of: B1
Assay: THAP1 transcriptional activity (GFP+/GFP- enrichment relative to wild-type constructs) (ratio to WT); higher = more THAP1 activity (PSMB5 reporter activation)
Details: with PSMB5 promoter-GFP reporter
Method: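 Deep mutational scan of human THAP1. Site-saturation single amino acid variant library (residues 2-213) was expressed by lentivirus at MOI ~0.3 in THAP1-knockout HEK-293T cells carrying an endogenous PSMB5 promoter-GFP knock-in reporter. Five days post-transduction, BFP+ cells were FACS-sorted into GFP dim and GFP bright populations and variants were counted by Illumina sequencing. Activity is the GFP-bright/GFP-dim read fold change, mean of 2 replicates, divided by the mean fold change of wild-type (synonymous) constructs in the same screen pool; WT = 1.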
MVQSCSAYGCKNRYDKDKPVSFHKFPLTRPSLCKEWEAAVRRKNFKPTNYSSICSEHFTPDCFKRECNNKLLKENAVPTIFLCTEPHDKKEDLLEPQEQLPPPPLPPPVSQVDAAIGLLMPPLQTPVNLSVFCDHNYTVEDTMHQRKRIHQLEQQVEKLRKKLKTAQQRCRRQERQLEKLKEVVHFQKEKDDVSERGYVILPNDYFEIVEVPA [K49N] showed a THAP1 transcriptional activity of 0.177. In the case of MVQSCSAYGCKNRYDKDKPVSFHKFPLTRPSLCKEWEAAVRRKNFKPTFYSSICSEHFTPDCFKRECNNKLLKENAVPTIFLCTEPHDKKEDLLEPQEQLPPPPLPPPVSQVDAAIGLLMPPLQTPVNLSVFCDHNYTVEDTMHQRKRIHQLEQQVEKLRKKLKTAQQRCRRQERQLEKLKEVVHFQKEKDDVSERGYVILPNDYFEIVEVPA [K49F], the THAP1 transcriptional activity is reported as 0.122. MVQSCSAYGCKNRYDKDKPVSFHKFPLTRPSLCKEWEAAVRRKNFKPTLYSSICSEHFTPDCFKRECNNKLLKENAVPTIFLCTEPHDKKEDLLEPQEQLPPPPLPPPVSQVDAAIGLLMPPLQTPVNLSVFCDHNYTVEDTMHQRKRIHQLEQQVEKLRKKLKTAQQRCRRQERQLEKLKEVVHFQKEKDDVSERGYVILPNDYFEIVEVPA [K49L] showed a THAP1 transcriptional activity of 0.234. MVQSCSAYGCKNRYDKDKPVSFHKFPLTRPSLCKEWEAAVRRKNFKPTEYSSICSEHFTPDCFKRECNNKLLKENAVPTIFLCTEPHDKKEDLLEPQEQLPPPPLPPPVSQVDAAIGLLMPPLQTPVNLSVFCDHNYTVEDTMHQRKRIHQLEQQVEKLRKKLKTAQQRCRRQERQLEKLKEVVHFQKEKDDVSERGYVILPNDYFEIVEVPA [K49E] showed a THAP1 transcriptional activity of 0.105. Work on MVQSCSAYGCKNRYDKDKPVSFHKFPLTRPSLCKEWEAAVRRKNFKPTRYSSICSEHFTPDCFKRECNNKLLKENAVPTIFLCTEPHDKKEDLLEPQEQLPPPPLPPPVSQVDAAIGLLMPPLQTPVNLSVFCDHNYTVEDTMHQRKRIHQLEQQVEKLRKKLKTAQQRCRRQERQLEKLKEVVHFQKEKDDVSERGYVILPNDYFEIVEVPA [K49R] yielded a THAP1 transcriptional activity of 0.427. Work on MVQSCSAYGCKNRYDKDKPVSFHKFPLTRPSLCKEWEAAVRRKNFKPTPYSSICSEHFTPDCFKRECNNKLLKENAVPTIFLCTEPHDKKEDLLEPQEQLPPPPLPPPVSQVDAAIGLLMPPLQTPVNLSVFCDHNYTVEDTMHQRKRIHQLEQQVEKLRKKLKTAQQRCRRQERQLEKLKEVVHFQKEKDDVSERGYVILPNDYFEIVEVPA [K49P] yielded a THAP1 transcriptional activity of 0.264. Work on MVQSCSAYGCKNRYDKDKPVSFHKFPLTRPSLCKEWEAAVRRKNFKPTHYSSICSEHFTPDCFKRECNNKLLKENAVPTIFLCTEPHDKKEDLLEPQEQLPPPPLPPPVSQVDAAIGLLMPPLQTPVNLSVFCDHNYTVEDTMHQRKRIHQLEQQVEKLRKKLKTAQQRCRRQERQLEKLKEVVHFQKEKDDVSERGYVILPNDYFEIVEVPA [K49H] yielded a THAP1 transcriptional activity of 0.0815. MVQSCSAYGCKNRYDKDKPVSFHKFPLTRPSLCKEWEAAVRRKNFKPTMYSSICSEHFTPDCFKRECNNKLLKENAVPTIFLCTEPHDKKEDLLEPQEQLPPPPLPPPVSQVDAAIGLLMPPLQTPVNLSVFCDHNYTVEDTMHQRKRIHQLEQQVEKLRKKLKTAQQRCRRQERQLEKLKEVVHFQKEKDDVSERGYVILPNDYFEIVEVPA [K49M] showed a THAP1 transcriptional activity of 0.232. For MVQSCSAYGCKNRYDKDKPVSFHKFPLTRPSLCKEWEAAVRRKNFKPTAYSSICSEHFTPDCFKRECNNKLLKENAVPTIFLCTEPHDKKEDLLEPQEQLPPPPLPPPVSQVDAAIGLLMPPLQTPVNLSVFCDHNYTVEDTMHQRKRIHQLEQQVEKLRKKLKTAQQRCRRQERQLEKLKEVVHFQKEKDDVSERGYVILPNDYFEIVEVPA [K49A], the THAP1 transcriptional activity was 0.22. With MVQSCSAYGCKNRYDKDKPVSFHKFPLTRPSLCKEWEAAVRRKNFKPTDYSSICSEHFTPDCFKRECNNKLLKENAVPTIFLCTEPHDKKEDLLEPQEQLPPPPLPPPVSQVDAAIGLLMPPLQTPVNLSVFCDHNYTVEDTMHQRKRIHQLEQQVEKLRKKLKTAQQRCRRQERQLEKLKEVVHFQKEKDDVSERGYVILPNDYFEIVEVPA [K49D] the THAP1 transcriptional activity was 0.12. With MVQSCSAYGCKNRYDKDKPVSFHKFPLTRPSLCKEWEAAVRRKNFKPTQYSSICSEHFTPDCFKRECNNKLLKENAVPTIFLCTEPHDKKEDLLEPQEQLPPPPLPPPVSQVDAAIGLLMPPLQTPVNLSVFCDHNYTVEDTMHQRKRIHQLEQQVEKLRKKLKTAQQRCRRQERQLEKLKEVVHFQKEKDDVSERGYVILPNDYFEIVEVPA [K49Q] the THAP1 transcriptional activity was 0.317. With MVQSCSAYGCKNRYDKDKPVSFHKFPLTRPSLCKEWEAAVRRKNFKPTCYSSICSEHFTPDCFKRECNNKLLKENAVPTIFLCTEPHDKKEDLLEPQEQLPPPPLPPPVSQVDAAIGLLMPPLQTPVNLSVFCDHNYTVEDTMHQRKRIHQLEQQVEKLRKKLKTAQQRCRRQERQLEKLKEVVHFQKEKDDVSERGYVILPNDYFEIVEVPA [K49C] the THAP1 transcriptional activity was 0.185. MVQSCSAYGCKNRYDKDKPVSFHKFPLTRPSLCKEWEAAVRRKNFKPTGYSSICSEHFTPDCFKRECNNKLLKENAVPTIFLCTEPHDKKEDLLEPQEQLPPPPLPPPVSQVDAAIGLLMPPLQTPVNLSVFCDHNYTVEDTMHQRKRIHQLEQQVEKLRKKLKTAQQRCRRQERQLEKLKEVVHFQKEKDDVSERGYVILPNDYFEIVEVPA [K49G] showed a THAP1 transcriptional activity of 0.123. In the case of MVQSCSAYGCKNRYDKDKPVSFHKFPLTRPSLCKEWEAAVRRKNFKPTIYSSICSEHFTPDCFKRECNNKLLKENAVPTIFLCTEPHDKKEDLLEPQEQLPPPPLPPPVSQVDAAIGLLMPPLQTPVNLSVFCDHNYTVEDTMHQRKRIHQLEQQVEKLRKKLKTAQQRCRRQERQLEKLKEVVHFQKEKDDVSERGYVILPNDYFEIVEVPA [K49I], the THAP1 transcriptional activity is reported as 0.398.
